Experiment [1] deals with T1, ∆14-SUMO2 precursor C48S/G93C with dehydroalanine at position 93 (SUMO2-DHA) (human, UniProt P61956 15-95, C48S | G93C, dehydroalanine (DHA) at position 93 (made from Cys93 of G93C with 2,5-dibromohexanediamide)).
T1 construct: SUMO2 precursor, human, with the immature C-terminal Val-Tyr after the di-glycine motif; Cys93 is turned into dehydroalanine, an electrophilic trap that reacts with the active site cysteine of the protease (Cys236 of USPL1); also called SUMO2 DHA precursor; ∆14-Sumo2 DHA; source: E. coli Rosetta (DE3), purified (Ni Sepharose, Resource Q); treated with 2,5-dibromohexanediamide and purified again …
Briefly: cross-linking; active site probe assay: protease at 2 μM with SUMO2-DHA at 6 μM, 30 °C, 3 h; formation of the covalent thioether adduct; USPL1 wild type and mutants for 3 h. The note with it: both partners purified.

For experiment [2], the target named is T1, ∆14-SUMO2 precursor C48S/G93C with …. Briefly: cell-based or functional assay.

T1 sequence (P61956 15-95 C48S/G93C): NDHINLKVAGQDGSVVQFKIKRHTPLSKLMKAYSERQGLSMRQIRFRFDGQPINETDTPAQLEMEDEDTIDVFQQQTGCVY

B1: USPL1 catalytic domain Y451F (enzyme, human, UniProt Q5W0Q7 212-514, looked up)
chain: MPLESKCTSFPQALCVQWKNAYALCWLDCILSALVHSEELKNTVTGLCSKEESIFWRLLTKYNQANTLLYTSQLSGVKDGDCKKLTSEIFAEIETCLNEVRDEIFISLQPQLRCTLGDMESPVFAFPLLLKLETHIEKLFLYSFSWDFECSQCGHQYQNRHMKSLVTFTNVIPEWHPLNAAHFGPCNNCNSKSQIRKMVLEKVSPIFMLHFVEGLPQNDLQHYAFHFEGCLYQITSVIQFRANNHFITWILDADGSWLECDDLKGPCSERHKKFEVPASEIHIVIWERKISQVTDKEAACLPL
notes: USPL1, human, catalytic domain Met212-Leu514, point mutant; Made by site-directed mutagenesis of pET28a-USPL1CD; source: E. coli Rosetta (DE3), purified (Ni Sepharose, Resource Q anion exchange); not shown: His tag (from the vector pET28a)
Take B1: the “fold decrease of binding against wild type” value in experiment [1] amounted to 4 fold. Moreover, the “proteolytic activity against SUMO2 substrates, fold decrease against wild type” value in experiment [2] came out at 4 fold.

The values above are taken from publication PMC8983731, “Structural basis for the SUMO protease activity of the atypical ubiquitin-specific protease USPL1” (Nature Communications, 2022).
